Earlier results in PMC3265123.
Like-named read-outs stand apart in the source and are kept apart here.

Key:
gC1qR (Homo sapiens) [1] = target: gC1qR (Homo sapiens) (UniProt Q07021)
gC1qR (Homo sapiens) [2] = target: gC1qR (Homo sapiens) (UniProt Q07021); remark: listed apart in the source

Chain of UniProt Q07021 (Q07021 74-282): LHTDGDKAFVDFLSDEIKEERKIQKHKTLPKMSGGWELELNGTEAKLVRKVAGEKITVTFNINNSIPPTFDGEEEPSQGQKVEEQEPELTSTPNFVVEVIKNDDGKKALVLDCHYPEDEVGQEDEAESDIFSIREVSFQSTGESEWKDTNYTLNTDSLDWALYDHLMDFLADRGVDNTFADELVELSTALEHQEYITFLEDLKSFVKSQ

Kd (gC1qR (Homo sapiens) [1]): 0.8 nM
Kd (gC1qR (Homo sapiens) [2]): 9 nM
Substance: high molecular weight kininogen (from UniProt P01042)
